Results published in patent publication US20210292396A1.

How the values were obtained:
Assay in all cases: cell-based or functional assay
[1] = target: HIV Env of isolate T255-34 (HIV)
[2] = target: Env of HIV isolate 246-F3.C10.2 (clade AC) (HIV)
[3] = target: Env of HIV isolate CNE5 (clade AE) (HIV)
[4] = target: HIV Env of isolate 6322.v4.c1 (HIV)
[5] = target: HIV Env of isolate CNE56 (HIV)
[6] = target: HIV Env of isolate CH119.10 (HIV)
[7] = target: Env of HIV isolate JRCSF.JB (clade B) (HIV)
[8] = target: Env of HIV isolate 3337.v2.c6 (clade CD) (HIV)
[9] = target: HIV Env of isolate 25925-2.22 (HIV)
[10] = target: Env of HIV isolate P1981.C5.3 (clade G) (HIV)
[11] = target: HIV Env of isolate BR07.DG (HIV)
[12] = target: HIV Env of isolate 242-14 (HIV)
[13] = target: Env of HIV isolate 3468.v1.c12 (clade AD) (HIV)
[14] = target: HIV Env of isolate CNE19 (HIV)
[15] = target: Env of HIV isolate TH023.6 (clade AE) (HIV)
[16] = target: Env of HIV isolate T255-34 (clade AG) (HIV)
[17] = target: HIV Env of isolate CH181.12 (HIV)
[18] = target: HIV Env of isolate CH070.1 (HIV)
[19] = target: HIV Env of isolate 6631.v3.c10 (HIV)
[20] = target: HIV Env of isolate CNE4 (HIV)
[21] = target: Env of HIV isolate BJOX002000.03.2 (clade BC) (HIV)
[22] = target: HIV Env of isolate TRO.11 (HIV)
[23] = target: Env of HIV isolate MS208.A1 (clade A) (HIV)
[24] = target: HIV Env of isolate MW965.26 (HIV)
[25] = target: Env of HIV isolate Q23.17 (clade A) (HIV)
[26] = target: HIV Env of isolate C1080.c3 (HIV)
[27] = target: Env of HIV isolate 3415.v1.c1 (clade A) (HIV)
[28] = target: HIV Env of isolate CNE31 (HIV)
[29] = target: Env of HIV isolate TZBD.02 (clade C) (HIV)
[30] = target: Env of HIV isolate BI369.9A (clade A) (HIV)
[31] = target: Env of HIV isolate 271-11 (clade AG) (HIV)
[32] = target: HIV Env of isolate C2101.c1 (HIV)
[33] = target: Env of HIV isolate CH119.10 (clade BC) (HIV)
[34] = target: HIV Env of isolate T253-11 (HIV)
[35] = target: HIV Env of isolate 928-28 (HIV)
[36] = target: Env of HIV isolate Q461.e2 (clade AD) (HIV)
[37] = target: HIV Env of isolate Q23.17 (HIV)
[38] = target: HIV Env of isolate BG1168.01 (HIV)
[39] = target: Env of HIV isolate CNE12 (clade B) (HIV)
[40] = target: Env of HIV isolate ZM109.4 (clade C) (HIV)
[41] = target: Env of HIV isolate BaL.26 (clade B) (HIV)

PGT121 (antibody)
IC80 [1]: > 50 µg/mL | IC50, pseudovirus neutralization [2]: > 50 µg/mL | IC50, pseudovirus neutralization [3]: > 50 µg/mL | IC80, pseudovirus neutralization [4]: > 50 µg/mL | IC80 [5]: > 50 µg/mL | IC80, pseudovirus neutralization [6]: 0.0937 µg/mL | IC50, pseudovirus neutralization [7]: 0.0563 µg/mL | IC50, pseudovirus neutralization [8]: 1.39 µg/mL | IC80, pseudovirus neutralization [9]: 0.0867 µg/mL | IC50, pseudovirus neutralization [10]: 0.007 µg/mL | IC80 [11]: 0.596 µg/mL | IC80 [12]: > 50 µg/mL | IC50, pseudovirus neutralization [13]: 0.0763 µg/mL | IC80, pseudovirus neutralization [14]: 0.041 µg/mL | IC50, pseudovirus neutralization [15]: > 50 µg/mL | IC50, pseudovirus neutralization [16]: 2.04 µg/mL | IC80, pseudovirus neutralization [17]: 0.083 µg/mL | IC80, pseudovirus neutralization [18]: 0.0423 µg/mL | IC80, pseudovirus neutralization [19]: > 50 µg/mL | IC80 [20]: 25.3 µg/mL | IC50, pseudovirus neutralization [21]: 0.026 µg/mL | IC80 [22]: 0.0583 µg/mL | IC50, pseudovirus neutralization [23]: > 50 µg/mL | IC80, pseudovirus neutralization [24]: 0.093 µg/mL | IC50, pseudovirus neutralization [25]: 0.0107 µg/mL | IC80 [26]: > 50 µg/mL | IC50, pseudovirus neutralization [27]: > 50 µg/mL | IC80, pseudovirus neutralization [28]: 2.08 µg/mL | IC50, pseudovirus neutralization [29]: 0.0257 µg/mL | IC50, pseudovirus neutralization [30]: 0.0283 µg/mL | IC50, pseudovirus neutralization [31]: > 50 µg/mL | IC80 [32]: > 50 µg/mL | IC50, pseudovirus neutralization [33]: 0.0313 µg/mL | IC80 [34]: > 50 µg/mL | IC80 [35]: 29.9 µg/mL | IC50, pseudovirus neutralization [36]: > 50 µg/mL | IC80 [37]: 0.0267 µg/mL | IC80 [38]: > 50 µg/mL | IC50, pseudovirus neutralization [39]: 0.0153 µg/mL | IC50, pseudovirus neutralization [40]: 1.96 µg/mL | IC50, pseudovirus neutralization [41]: 0.0227 µg/mL
